From US20230374150A1 (Memorial Sloan Kettering, published 2023)
Several values for one entry are separate records, joined by “and”; a condition that tells them apart may be missing. Equal entries are not always repeated.

Assays:
[1] = molecular target: PSMA on PSMA(+) human prostate cancer cell lines (LNCaP-AR, PC3-PIP, CWR22, VCaP) (human, UniProt Q04609 1-750); experiment: cell-based or functional assay
[2] = molecular target: PSMA on PSMA(+) canine osteosarcoma cell lines (D-17, DSN, DAN, DSDh) (canine, UniProt I4IY07 29-779); experiment: cell-based or functional assay
Sequence of PSMA on PSMA(+) canine osteosarcoma cell lines (D-17, DSN, DAN, DSDh) (I4IY07 entry or part of it limits assumed): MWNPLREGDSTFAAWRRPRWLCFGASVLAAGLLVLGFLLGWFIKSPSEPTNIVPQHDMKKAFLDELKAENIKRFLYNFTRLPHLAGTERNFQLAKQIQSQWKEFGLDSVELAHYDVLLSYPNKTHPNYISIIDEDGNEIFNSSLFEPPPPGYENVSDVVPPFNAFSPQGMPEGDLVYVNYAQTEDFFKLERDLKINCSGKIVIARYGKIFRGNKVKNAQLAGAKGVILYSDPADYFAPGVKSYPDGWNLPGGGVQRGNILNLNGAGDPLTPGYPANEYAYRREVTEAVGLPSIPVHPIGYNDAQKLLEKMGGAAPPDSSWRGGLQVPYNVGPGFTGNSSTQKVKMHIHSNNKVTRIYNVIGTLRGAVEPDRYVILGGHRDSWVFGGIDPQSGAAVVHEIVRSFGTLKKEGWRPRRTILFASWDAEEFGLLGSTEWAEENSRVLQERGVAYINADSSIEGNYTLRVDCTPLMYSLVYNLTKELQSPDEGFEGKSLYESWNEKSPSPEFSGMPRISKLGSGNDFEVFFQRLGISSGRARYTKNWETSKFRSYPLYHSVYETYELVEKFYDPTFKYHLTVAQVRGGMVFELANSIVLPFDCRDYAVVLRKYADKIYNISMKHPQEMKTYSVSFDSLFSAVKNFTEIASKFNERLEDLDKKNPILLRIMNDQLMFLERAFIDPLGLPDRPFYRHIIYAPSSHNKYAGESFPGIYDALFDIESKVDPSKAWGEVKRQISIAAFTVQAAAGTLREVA

Human PSMA antigen [3] = molecular target: T1, Human PSMA antigen (human, UniProt Q04609 44-750, limits assumed); experiment: SPR Biacore, immobilised human PSMA, 37 C, 1:1 fit
T1 construct: This is the antigen immobilised on the Biacore chip; also called FOLH1_HUMAN
T1 sequence (Q04609 44-750 limits assumed): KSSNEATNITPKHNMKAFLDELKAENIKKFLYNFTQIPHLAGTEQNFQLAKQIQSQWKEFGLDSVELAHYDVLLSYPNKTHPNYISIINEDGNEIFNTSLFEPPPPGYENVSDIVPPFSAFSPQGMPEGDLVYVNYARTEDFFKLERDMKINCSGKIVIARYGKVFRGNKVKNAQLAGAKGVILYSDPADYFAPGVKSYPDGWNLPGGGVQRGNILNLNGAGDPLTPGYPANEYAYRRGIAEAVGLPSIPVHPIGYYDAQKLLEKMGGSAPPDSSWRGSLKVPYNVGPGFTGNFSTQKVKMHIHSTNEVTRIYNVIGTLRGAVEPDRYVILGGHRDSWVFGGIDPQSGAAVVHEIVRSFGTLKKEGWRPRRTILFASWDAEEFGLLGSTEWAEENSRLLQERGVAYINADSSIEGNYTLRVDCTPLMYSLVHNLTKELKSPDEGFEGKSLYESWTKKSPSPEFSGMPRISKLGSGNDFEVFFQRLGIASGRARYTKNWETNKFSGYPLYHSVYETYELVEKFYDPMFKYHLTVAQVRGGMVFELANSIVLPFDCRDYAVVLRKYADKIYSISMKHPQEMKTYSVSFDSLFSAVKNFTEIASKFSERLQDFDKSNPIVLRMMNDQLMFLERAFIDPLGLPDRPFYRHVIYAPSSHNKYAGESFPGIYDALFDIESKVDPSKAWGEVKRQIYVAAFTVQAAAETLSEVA
Procedure: (§1) PSMA-BsAb Biacore Settings. Human PSMA antigen was immobilized directly on Fc2 at 3000 RU, and cynomolgus PSMA (ACRO) on Fc4 at 3000 RU (Blank on Fc1 and Fc3 as controls). Abs were run through the system at 37° C., at concentrations of 250 and 500 nM, with association time 1 min, dissociation time 15 min. Regeneration was performed at 30 mM NaOH. All data were fitted with 1:1 model.

cynomolgus PSMA (ACRO) = molecular target: T2, cynomolgus PSMA (ACRO) (cynomolgus, UniProt A0A2K5VNZ0 44-750); experiment: SPR Biacore, immobilised cynomolgus PSMA, 37 C, 1:1 fit
T2 construct: Immobilised on the Biacore chip
Procedure: as §1

Human PSMA antigen [4] = molecular target: T1, Human PSMA antigen; experiment: SPR (Biacore), 37 C, antibody over immobilized PSMA
Text: The calculated kinetic parameters derived from SPR are shown in FIG. 4C, showing distinct differences in affinities when compared to the chimeric and the original mouse antibody J591. Increased affinity of anti-PSMA antibodies should translate into higher potency, while lower affinity anti-PSMA antibodies into lower toxicity. This affinity modulation is achieved without altering the CDR sequences. Based on the binding kinetics, the clone having combination of J591_VL-1 and J591_VH-3, which has near identical binding kinetics to those of J591 chimeric antibody, was chosen to build the PSMA-BsAb (BC244) of the present technology. The amino acid sequences of the light chain (SEQ ID NO: 11) and the heavy chain (SEQ ID NO: 12) of the select clone are shown in FIG. 12. Mutation N297A was used to remove glycosylation, and K322A to minimize complement activation.

Sequence of PSMA on PSMA(+) human prostate cancer cell lines (LNCaP-AR, PC3-PIP, CWR22, VCaP) (Q04609 whole entry): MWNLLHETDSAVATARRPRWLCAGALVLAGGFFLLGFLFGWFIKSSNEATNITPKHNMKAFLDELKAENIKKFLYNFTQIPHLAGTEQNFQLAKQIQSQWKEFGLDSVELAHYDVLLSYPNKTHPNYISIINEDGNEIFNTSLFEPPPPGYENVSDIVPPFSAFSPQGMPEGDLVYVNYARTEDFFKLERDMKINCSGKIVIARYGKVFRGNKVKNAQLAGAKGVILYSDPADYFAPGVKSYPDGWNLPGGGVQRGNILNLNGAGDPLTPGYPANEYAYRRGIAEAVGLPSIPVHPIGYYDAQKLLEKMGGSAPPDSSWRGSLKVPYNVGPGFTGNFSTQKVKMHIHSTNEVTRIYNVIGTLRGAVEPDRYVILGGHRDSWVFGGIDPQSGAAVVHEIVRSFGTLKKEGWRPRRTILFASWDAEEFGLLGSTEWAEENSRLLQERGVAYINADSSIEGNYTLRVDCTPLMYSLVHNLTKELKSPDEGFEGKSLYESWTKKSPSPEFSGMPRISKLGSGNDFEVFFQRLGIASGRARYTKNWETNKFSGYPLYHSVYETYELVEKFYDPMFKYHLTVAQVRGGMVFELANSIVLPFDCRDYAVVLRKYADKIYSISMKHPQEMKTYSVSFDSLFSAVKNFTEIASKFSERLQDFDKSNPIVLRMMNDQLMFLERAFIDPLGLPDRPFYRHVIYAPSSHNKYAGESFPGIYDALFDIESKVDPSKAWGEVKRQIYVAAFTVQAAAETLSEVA

Row | Binder | EC50, ADTC (4-hour 51Cr release), LNCaP-AR cells [1] | EC50, ADTC (4-hour 51Cr release), PC3-PIP cells [1] | EC50, ADTC (4-hour 51Cr release), VCaP cells [1] | EC50, ADTC (4-hour 51Cr release), D-17 cells [2] | EC50, ADTC (4-hour 51Cr release), DAN cells [2] | EC50, ADTC (4-hour 51Cr release), DSDh cells [2] | EC50, ADTC (4-hour 51Cr release), DSN cells [2] | Kd (Human PSMA antigen [3]) | koff (Human PSMA antigen [3]) | kon (Human PSMA antigen [3]) | t ½ (Human PSMA antigen [3]) | Kd (cynomolgus PSMA (ACRO)) | koff (cynomolgus PSMA (ACRO)) | kon (cynomolgus PSMA (ACRO)) | t ½ (cynomolgus PSMA (ACRO)) | Kd (Human PSMA antigen [4]) | koff (Human PSMA antigen [4]) | kon (Human PSMA antigen [4])
1 | anti-PSMAxhuC825 clone BC192 (PSMA LALA) (bispecific antibody, human IgG1, kappa, L234A L235A) light: DIQLTQSPSFLSASVGDRVTITCRASQDVGTALDWYQQKPGKAPKLLIYWASTLHSGVPSRFSGSGSGTEFTLTISSLQPEDFATYYCQQYNSYPLTFGQGTKLEIKRTVAAPSVFIFPPSDEQLKSGTASVVCLLNNFYPREAKVQWKVDNALQSGNSQESVTEQDSKDSTYSLSSTLTLSKADYEKHKVYACEVTHQGLSSPVTKSFNRGECTSGGGGSGGGGSGGGGSHVQLVESGGGLVQPGGSLRLSCAASGFSLTDYGVHWVRQAPGKGLEWLGVIWSGGGTAYNTALISRFTISRDNSKNTLYLQMNSLRAEDTAVYYCARRGSYPYNYFDAWGCGTLVTVSSGGGGSGGGGSGGGGSGGGGSGGGGSGGGGSQAVVTQEPSLTVSPGGTVTLTCGSSTGAVTASNYANWVQQKPGQCPRGLIGGHNNRPPGVPARFSGSLLGGKAALTLLGAQPEDEAEYYCALWYSDHWVIGGGTKLTVLG heavy: not shown |  |  |  |  |  |  |  | 2.9 nM | 0.000279 s⁻¹ | 96200 M⁻¹ s⁻¹ | 41.3 min | 8.75 nM | 0.000459 s⁻¹ | 52500 M⁻¹ s⁻¹ | 25.2 min |  |  | 
2 | anti-PSMAxhuC825 clone BC193 (PSMA K322) (bispecific antibody) light: DIQLTQSPSFLSASVGDRVTITCRASQDVGTALDWYQQKPGKAPKLLIYWASTLHSGVPSRFSGSGSGTEFTLTISSLQPEDFATYYCQQYNSYPLTFGQGTKLEIKRTVAAPSVFIFPPSDEQLKSGTASVVCLLNNFYPREAKVQWKVDNALQSGNSQESVTEQDSKDSTYSLSSTLTLSKADYEKHKVYACEVTHQGLSSPVTKSFNRGECTSGGGGSGGGGSGGGGSHVQLVESGGGLVQPGGSLRLSCAASGFSLTDYGVHWVRQAPGKGLEWLGVIWSGGGTAYNTALISRFTISRDNSKNTLYLQMNSLRAEDTAVYYCARRGSYPYNYFDAWGCGTLVTVSSGGGGSGGGGSGGGGSGGGGSGGGGSGGGGSQAVVTQEPSLTVSPGGTVTLTCGSSTGAVTASNYANWVQQKPGQCPRGLIGGHNNRPPGVPARFSGSLLGGKAALTLLGAQPEDEAEYYCALWYSDHWVIGGGTKLTVLG heavy: not shown |  |  |  |  |  |  |  | 2.15 nM | 0.00021 s⁻¹ | 97500 M⁻¹ s⁻¹ | 55 min | 4.88 nM | 0.000209 s⁻¹ | 42900 M⁻¹ s⁻¹ | 55.2 min |  |  | 

The next binders have a lower Kd (Human PSMA antigen [3]) than those just listed; values first:

Row | EC50, ADTC (4-hour 51Cr release), LNCaP-AR cells [1] | EC50, ADTC (4-hour 51Cr release), PC3-PIP cells [1] | EC50, ADTC (4-hour 51Cr release), VCaP cells [1] | EC50, ADTC (4-hour 51Cr release), D-17 cells [2] | EC50, ADTC (4-hour 51Cr release), DAN cells [2] | EC50, ADTC (4-hour 51Cr release), DSDh cells [2] | EC50, ADTC (4-hour 51Cr release), DSN cells [2] | Kd (Human PSMA antigen [3]) | koff (Human PSMA antigen [3]) | kon (Human PSMA antigen [3]) | t ½ (Human PSMA antigen [3]) | Kd (cynomolgus PSMA (ACRO)) | koff (cynomolgus PSMA (ACRO)) | kon (cynomolgus PSMA (ACRO)) | t ½ (cynomolgus PSMA (ACRO)) | Kd (Human PSMA antigen [4]) | koff (Human PSMA antigen [4]) | kon (Human PSMA antigen [4]) | Binder
3 |  |  |  |  |  |  |  | 1.55 nM | 0.000196 s⁻¹ | 127000 M⁻¹ s⁻¹ | 58.8 min | 3.71 nM | 0.000716 s⁻¹ | 193000 M⁻¹ s⁻¹ | 16.1 min | 0.206 nM | 1.21e-05 s⁻¹ | 58500 M⁻¹ s⁻¹ | 10J5-chimeric J591 (antibody, V domains shown, also called J591 chimeric antibody) VH: EVQLQQSGPELVKPGTSVRISCKTSGYTFTEYTIHWVKQSHGKSLEWIGNINPNNGGTTYNQKFEDKATLTVDKSSSTAYMELRSLTSEDSAVYYCAAGWNFDYWGQGTTLTVSS VL: DIVMTQSHKFMSTSVGDRVSIICKASQDVGTAVDWYQQKPGQSPKLLIYWASTRHTGVPDRFTGSGSGTDFTLTITNVQSEDLADYFCQQYNSYPLTFGAGTMLDLKR
4 | 0.000761 µg/mL and 3.81 pM | 2.1e-05 µg/mL and 107 fM | 0.0163 µg/mL and 81.7 pM | 0.106 nM | 0.102 nM | 0.152 nM | 0.0703 nM | 1.18 nM | 0.000162 s⁻¹ | 138000 M⁻¹ s⁻¹ | 71.2 min | 2.79 nM | 0.000329 s⁻¹ | 118000 M⁻¹ s⁻¹ | 35.1 min |  |  |  | humanized anti-PSMAxCD3 BsAb BC244 (H3L1) (bispecific antibody, human IgG1, kappa, N297A, IgG(L)-scFv format, J591_VL-1 + J591_VH-3; also called PSMA-BsAb) light: DIQLTQSPSFLSASVGDRVTITCRASQDVGTALDWYQQKPGKAPKLLIYWASTLHSGVPSRFSGSGSGTEFTLTISSLQPEDFATYYCQQYNSYPLTFGQGTKLEIKRTVAAPSVFIFPPSDEQLKSGTASVVCLLNNFYPREAKVQWKVDNALQSGNSQESVTEQDSKDSTYSLSSTLTLSKADYEKHKVYACEVTHQGLSSPVTKSFNRGECTSGGGGSGGGGSGGGGSQVQLVQSGGGVVQPGRSLRLSCKASGYTFTRYTMHWVRQAPGKCLEWIGYINPSRGYTNYNQKFKDRFTISRDNSKNTAFLQMDSLRPEDTGVYFCARYYDDHYSLDYWGQGTPVTVSSGGGGSGGGGSGGGGSGGGGSGGGGSGGGGSDIQMTQSPSSLSASVGDRVTITCSASSSVSYMNWYQQTPGKAPKRWIYDTSKLASGVPSRFSGSGSGTDYTFTISSLQPEDIATYYCQQWSSNPFTFGCGTKLQITR heavy: not shown
